The results in this text go back to patent US20250215039A1, “NUCLEOSIDES FOR TREATING CANCER” (PRIMEFOUR THERAPEUTICS, INC., priority 2022, published 2025).

As a reminder, the Km is the concentration of substrate that gives half-maximal velocity. As usually defined, the kcat is the maximal rate divided by the concentration of active sites.

Holding throughout (experiment): not read
Common to all, as to conditions: other: substrate of human CDA, 37° C., Michaelis Menten fit, pH 7.5

Substrate in series [1]: Nc1ccn([C@@H]2O[C@H](CO)[C@@H](O)C2(F)F)c(=O)n1
Substrate in series [2]: C[C@]1(CO)O[C@@H](n2cc(F)c(N)nc2=O)C[C@@H]1O
Substrate in series [3]: C[C@]1(CO)O[C@@H](n2cc(F)c(N)nc2=O)[C@@H](O)[C@@H]1O
Substrate in series [4]: C[C@]1(CO)O[C@@H](n2ccc(N)nc2=O)[C@@H](O)[C@@H]1O

B1: human cytidine deaminase (CDA) (Homo sapiens) (protein)
chain: MAQKRPACTLKPECVQQLLVCSQEAKKSAYCPYSHFPVGAALLTQEGRIFKGCNIENACYPLGICAERTAIQKAVSEGYKDFRAIAIASDMQDDFISPCGACRQVMREFGTNWPVYMTKPDGTYIVMTVQELLPSSFGPEDLQKTQ
Regarding B1, the Km came to 520.8 µM in “not read [1]”, 1003 µM in “not read [2]”, 1057.8 µM in “not read [3]” and 196 µM in “not read [4]”. Moreover, the kcat in the series “not read [1]” came to 26.8 s⁻¹; in “not read [2]”, 13.3 s⁻¹; in the series “not read [3]”, 6.1 s⁻¹; in “not read [4]”, 2.8 s⁻¹. Also, the kcat/Km was 0.53 (M^−1s^−1) × 10^5 in “not read [1]”, 23000 M⁻¹ s⁻¹ in the series “not read [2]”, 5000 M⁻¹ s⁻¹ in the series “not read [3]” and 16000 M⁻¹ s⁻¹ in “not read [4]”.
